Source: publication PMC8452682, “Unwinding of a DNA replication fork by a hexameric viral helicase” (Nature Communications, 2021)

Target: the molecule itself
Test: cryo-EM structure; E1RF complex: 60 uM E1 assembled with 10 uM fork DNA, no nucleotide, purified by gel filtration (10 mM Tris-Cl pH 8.0, 225 mM NaCl, 2 mM DTT, 0.1 mM PMSF, 1 mM EDTA); hexamer on DNA; Titan Krios 300 kV, K3

B1: Bovine papillomavirus (BPV) E1 helicase, full-length, wild type (enzyme)
chain: MANDKGSNWDSGLGCSYLLTEAECESDKENEEPGAGVELSVESDRYDSQDEDFVDNASVFQGNHLEVFQALEKKAGEEQILNLKRKVLGSSQNSSGSEASETPVKRRKSGAKRRLFAENEANRVLTPLQVQGEGEGRQELNEEQAISHLHLQLVKSKNATVFKLGLFKSLFLCSFHDITRLFKNDKTTNQQWVLAVFGLAEVFFEASFELLKKQCSFLQMQKRSHEGGTCAVYLICFNTAKSRETVRNLMANTLNVREECLMLQPAKIRGLSAALFWFKSSLSPATLKHGALPEWIRAQTTLNESLQTEKFDFGTMVQWAYDHKYAEESKIAYEYALAAGSDSNARAFLATNSQAKHVKDCATMVRHYLRAETQALSMPAYIKARCKLATGEGSWKSILTFFNYQNIELITFINALKLWLKGIPKKNCLAFIGPPNTGKSMLCNSLIHFLGGSVLSFANHKSHFWLASLADTRAALVDDATHACWRYFDTYLRNALDGYPVSIDRKHKAAVQIKAPPLLVTSNIDVQAEDRYLYLHSRVQTFRFEQPCTDESGEQPFNITDADWKSFFVRLWGRLDLIDEEEDSEEDGDSMRTFTCSARNTNAVD
notes: Replication protein E1 of bovine papillomavirus (BPV), full length; C-terminal acidic tail is residues 579-605; Hexamer assembled on a synthetic DNA replication fork (30 bp dsDNA, 3' T20, 13-base 5' tail) without nucleotide; also called E1 protein; subunits A-F of the E1RF complex; source: expressed as a GST fusion protein, purified (glutathione sepharose, thrombin cleavage, cation and anion …)
  stoichiometry N: 6
